± gives the standard deviation of the averaged measurements.
Legend:
Saccharomyces cerevisiae [1] = experiment: protein stability index of tFT-peptide fusion (C-terminal peptide) (PSI (0-1 scale)); higher = more stable (slower turnover)
Experimental: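 MPS profiling in S. cerevisiae of the tFT-X12 degron library: putative degron peptides plus stable controls, 12 aa, fused to the C-terminus of a sfGFP-mCherry timer. Cells are FACS-sorted into 8 mCherry/sfGFP bins and deep-sequenced. PSI runs from 0 (unstable) to 1 (stable). Backgrounds are wild type, das1Δ and doa10Δ at 30 °C, and wild type, das1Δ, cdc34-1 and cdc53-1 at 37 °C; 2-3 technical replicates each.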

Saccharomyces cerevisiae [2] = experiment: as above; conditions: genetic background: wild type; temperature: 30 C
[3] = genetic background: cdc34-1, temperature: 37 C
[4] = genetic background: cdc53-1, temperature: 37 C
[5] = genetic background: das1 deletion, temperature: 30 C
[6] = genetic background: das1 deletion, temperature: 37 C
[7] = genetic background: doa10 deletion, temperature: 30 C
[8] = genetic background: wild type, temperature: 30 C
[9] = genetic background: wild type, temperature: 37 C
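Note: PSI is a weighted mean of sequencing reads over stability bins, variants kept only with over 10 reads, mCherry proximal and sfGFP distal, peptide attached via GGGS linker.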

Sequence | protein stability index (Saccharomyces cerevisiae [1]; [3]) | protein stability index (Saccharomyces cerevisiae [1]; [4]) | protein stability index (Saccharomyces cerevisiae [1]; [5]) | protein stability index (Saccharomyces cerevisiae [1]; [6]) | protein stability index (Saccharomyces cerevisiae [1]; [7]) | protein stability index (Saccharomyces cerevisiae [1]; [8]) | protein stability index (Saccharomyces cerevisiae [1]; [9]) | protein stability index (Saccharomyces cerevisiae [2])
CLRFVFWFVCFV | 0.227 ± 0.047 | 0.238 ± 0.0095 | 0.254 ± 0.03 | 0.351 ± 0.0079 | 0.268 ± 0.0087 | 0.186 ± 0.01 | 0.231 ± 0.018 | 0.27 ± 0.087
VYVYTIRVRWSE | 0.135 ± 0.024 | 0.274 ± 0.039 | 0.197 ± 0.013 | 0.289 ± 0.023 | 0.164 ± 0.021 | 0.184 ± 0.027 | 0.269 ± 0.03 | 0.277 ± 0.015
VRINLLFVWFSR | 0.407 ± 0.0067 | 0.472 ± 0.028 | 0.331 ± 0.044 | 0.491 ± 0.012 | 0.359 ± 0.016 | 0.334 ± 0.04 | 0.464 ± 0.033 | 0.396 ± 0.026
VFFRVLVAGCRQ | 0.537 ± 0.04 | 0.618 ± 0.021 | 0.451 ± 0.022 | 0.5761 ± 0.0052 | 0.449 ± 0.0066 | 0.468 ± 0.0052 | 0.568 ± 0.028 | 0.522 ± 0.084
APRPSYSLLALL | 0.733 ± 0.034 | 0.858 ± 0.13 | 0.711 ± 0.04 | 0.783 ± 0.026 | 0.375 ± 0.01 | 0.41 ± 0.0052 | 0.616 ± 0.043 | 0.443 ± 0.025
RHQTDIVTATQK | 0.694 ± 0.05 | 0.724 ± 0.026 | 0.636 ± 0.036 | 0.717 ± 0.012 | 0.642 ± 0.062 | 0.685 ± 0.014 | 0.70375 ± 0.00022 | 0.562 ± 0.097
AFRFHTYFLLLC | 0.0472 ± 0.006 | 0.0404 ± 0.0043 | 0.153 ± 0.04 | 0.184 ± 0.0066 | 0.0686 ± 0.021 | 0.0553 ± 0.012 | 0.0696 ± 0.038 | 0.0812 ± 0.019
RFIYYCVDVFFS | 0.0337 ± 0.01 | 0.147 ± 0.025 | 0.123 ± 0.049 | 0.215 ± 0.021 | 0.0847 ± 0.031 | 0.1 ± 0.034 | 0.19 ± 0.037 | 0.176 ± 0.033
CIIAVMISIVSF | 0.0342 ± 0.0065 | 0.0959 ± 0.012 | 0.0327 ± 0.018 | 0.14 ± 0.035 | 0.02686 ± 0.00016 | 0.0274 ± 0.0082 | 0.0917 ± 0.023 | 0.0807 ± 0.031
YLMVSKMSLRIG | 0.602 ± 0.021 | 0.643 ± 0.0084 | 0.532 ± 0.021 | 0.609 ± 0.017 | 0.296 ± 0.054 | 0.306 ± 0.026 | 0.516 ± 0.025 | 0.401 ± 0.0052
GYAFPPPHRVRT | 0.654 ± 0.073 | 0.7419 ± 0.0073 | 0.669 ± 0.023 | 0.7288 ± 0.0051 | 0.6865 ± 0.0043 | 0.652 ± 0.029 | 0.702 ± 0.016 | 0.741 ± 0.025
WVVVKITAHTAT | 0.323 ± 0.028 | 0.38 ± 0.021 | 0.22 ± 0.02 | 0.405 ± 0.018 | 0.185 ± 0.0081 | 0.222 ± 0.021 | 0.4 ± 0.0065 | 0.326 ± 0.016
RYVVVGACIQVV | 0.421 ± 0.015 | 0.447 ± 0.0078 | 0.302 ± 0.024 | 0.48 ± 0.0021 | 0.274 ± 0.015 | 0.314 ± 0.012 | 0.4511 ± 0.003 | 0.37 ± 0.011
FLSVGFSCSFVC | 0.674 ± 0.082 | 0.676 ± 0.034 | 0.599 ± 0.06 | 0.669 ± 0.04 | 0.375 ± 0.024 | 0.4115 ± 0.0017 | 0.609 ± 0.013 | 0.4939 ± 0.00094
RILFSPSTFYLF | 0.665 ± 0.048 | 0.761 ± 0.037 | 0.705 ± 0.03 | 0.7501 ± 0.0036 | 0.214 ± 0.024 | 0.265 ± 0.031 | 0.487 ± 0.024 | 0.397 ± 0.026
GWLRHGWWRTVG | 0.605 ± 0.024 | 0.709 ± 0.0069 | 0.658 ± 0.024 | 0.734 ± 0.011 | 0.152 ± 0.0082 | 0.17 ± 0.018 | 0.4286 ± 0.00089 | 0.313 ± 0.0015
CPYSNAFALCVF | 0.153 ± 0.023 | 0.237 ± 0.022 | 0.22 ± 0.026 | 0.316 ± 0.0064 | 0.183 ± 0.0056 | 0.192 ± 0.019 | 0.253 ± 0.0037 | 0.272 ± 0.034
HMVSWTVVRSLM | 0.652 ± 0.065 | 0.7014 ± 0.004 | 0.603 ± 0.019 | 0.76 ± 0.026 | 0.138 ± 0.029 | 0.144 ± 0.0044 | 0.2582 ± 0.00046 | 0.316 ± 0.011
GYLVFTLRWLRG | 0.384 ± 0.038 | 0.491 ± 0.035 | 0.343 ± 0.027 | 0.507 ± 0.016 | 0.271 ± 0.026 | 0.305 ± 0.02 | 0.461 ± 0.0085 | 0.461 ± 0.06
LVHLVLYVAVFC | 0.317 ± 0.043 | 0.4112 ± 0.0015 | 0.292 ± 0.048 | 0.409 ± 0.0046 | 0.2877 ± 0.0014 | 0.309 ± 0.013 | 0.398 ± 0.0049 | 0.283 ± 0.074

Sequence | protein stability index (Saccharomyces cerevisiae [1]; [3]) | protein stability index (Saccharomyces cerevisiae [1]; [4]) | protein stability index (Saccharomyces cerevisiae [1]; [5]) | protein stability index (Saccharomyces cerevisiae [1]; [6]) | protein stability index (Saccharomyces cerevisiae [1]; [7]) | protein stability index (Saccharomyces cerevisiae [1]; [8]) | protein stability index (Saccharomyces cerevisiae [1]; [9]) | protein stability index (Saccharomyces cerevisiae [2])
SSGIGLFVWVYG | 0.465 ± 0.0058 | 0.456 ± 0.015 | 0.282 ± 0.035 | 0.514 ± 0.013 | 0.226 ± 0.0051 | 0.268 ± 0.035 | 0.5023 ± 0.0012 | 0.421 ± 0.014
TCRLIQLTVTLH | 0.3115 ± 0.0026 | 0.3774 ± 0.001 | 0.257 ± 0.038 | 0.458 ± 0.0051 | 0.232 ± 0.0034 | 0.253 ± 0.018 | 0.4071 ± 0.0036 | 0.386 ± 0.053
FVICGMLVHWMV | 0.479 ± 0.04 | 0.536 ± 0.084 | 0.376 ± 0.028 | 0.58244 ± 0.00049 | 0.321 ± 0.0041 | 0.344 ± 0.02 | 0.5356 ± 0.0023 | 0.434 ± 0.01
CIFLLMAILSLA | 0.48 ± 0.055 | 0.558 ± 0.0093 | 0.363 ± 0.029 | 0.534 ± 0.023 | 0.2341 ± 0.00064 | 0.27 ± 0.025 | 0.427 ± 0.0079 | 0.411 ± 0.075
LFLVFIGLFFLT | 0.348 ± 0.011 | 0.429 ± 0.035 | 0.359 ± 0.061 | 0.46 ± 0.011 | 0.338 ± 0.011 | 0.327 ± 0.015 | 0.441 ± 0.01 | 0.413 ± 0.012
SFFFLILFLFRD | 0.372 ± 0.11 | 0.459 ± 0.04 | 0.315 ± 0.029 | 0.484 ± 0.014 | 0.318 ± 0.019 | 0.299 ± 0.03 | 0.466 ± 0.04 | 0.385 ± 0.053
IREYSIRIKRLQ | 0.623 ± 0.062 | 0.722 ± 0.052 | 0.64 ± 0.041 | 0.719 ± 0.022 | 0.138 ± 0.016 | 0.146 ± 0.04 | 0.318 ± 0.058 | 0.33 ± 0.036
PLYFSVFSLLFL | 0.522 ± 0.03 | 0.556 ± 0.048 | 0.489 ± 0.015 | 0.631 ± 0.025 | 0.478 ± 0.026 | 0.41 ± 0.021 | 0.539 ± 0.013 | 0.473 ± 0.012
LIPFPGFFILLT | 0.244 ± 0.021 | 0.13 ± 0.0096 | 0.277 ± 0.021 | 0.37 ± 0.046 | 0.49 ± 0.023 | 0.28 ± 0.05 | 0.315 ± 0.054 | 0.436 ± 0.0094
CREFLQSMLFYC | 0.688 ± 0.043 | 0.744 ± 0.017 | 0.645 ± 0.044 | 0.751 ± 0.018 | 0.241 ± 0.016 | 0.281 ± 0.021 | 0.56 ± 0.02 | 0.373 ± 0.1
TCVVCSCVLQCV | 0.47 ± 0.041 | 0.491 ± 0.02 | 0.307 ± 0.023 | 0.49 ± 0.0051 | 0.305 ± 0.027 | 0.324 ± 0.028 | 0.4641 ± 0.0042 | 0.362 ± 0.04
LLAREILVIVAV | 0.181 ± 0.0035 | 0.229 ± 0.017 | 0.207 ± 0.032 | 0.32 ± 0.017 | 0.166 ± 0.0048 | 0.204 ± 0.015 | 0.271 ± 0.0034 | 0.307 ± 0.0051
SSAFFFLLFSLA | 0.4227 ± 0.003 | 0.484 ± 0.006 | 0.342 ± 0.031 | 0.511 ± 0.009 | 0.244 ± 0.0068 | 0.266 ± 0.037 | 0.446 ± 0.0051 | 0.366 ± 0.013
LCLLHCSICISF | 0.352 ± 0.026 | 0.4113 ± 0.0012 | 0.301 ± 0.027 | 0.44881 ± 0.00028 | 0.285 ± 0.015 | 0.295 ± 0.036 | 0.4142 ± 0.0008 | 0.388 ± 0.014
LPPSPPCQSPAL | 0.667 ± 0.021 | 0.716 ± 0.012 | 0.672 ± 0.015 | 0.728 ± 0.012 | 0.681 ± 0.03 | 0.667 ± 0.019 | 0.685 ± 0.013 | 0.743 ± 0.018
QDQWINTSLELS | 0.677 ± 0.018 | 0.759 ± 0.0081 | 0.676 ± 0.039 | 0.7465 ± 0.0027 | 0.685 ± 0.015 | 0.68 ± 0.035 | 0.711 ± 0.024 | 0.751 ± 0.056
FLVFPLLIQFFL | 0.2311 ± 0.0022 | 0.303 ± 0.015 | 0.356 ± 0.04 | 0.4346 ± 0.0039 | 0.346 ± 0.0097 | 0.257 ± 0.014 | 0.323 ± 0.014 | 0.36 ± 0.019
KLMGWFVGVVAR | 0.494 ± 0.0073 | 0.49 ± 0.019 | 0.355 ± 0.025 | 0.535 ± 0.011 | 0.323 ± 0.0045 | 0.351 ± 0.039 | 0.517 ± 0.033 | 0.442 ± 0.015
IWVFSVTGWCGC | 0.501 ± 0.0055 | 0.589 ± 0.018 | 0.401 ± 0.022 | 0.55 ± 0.008 | 0.3804 ± 0.0007 | 0.417 ± 0.019 | 0.532 ± 0.016 | 0.452 ± 0.024
